Laboratory results published in patent US20180185510A1, “ANTIBODY DRUG CONJUGATES OF KINESIN SPINDEL PROTEIN (KSP) INHIBITORS WITH ANTI-B7H3-ANTIBODIES” (BAYER PHARMA AKTIENGESELLSCHAFT, priority 2015, published 2018).

T1: B7H3 on B7H3-positive human tumour cells (A498, MCF-7, Caki-2, 786-0) (human, UniProt Q5ZPR3 29-534)
T1 sequence (looked up): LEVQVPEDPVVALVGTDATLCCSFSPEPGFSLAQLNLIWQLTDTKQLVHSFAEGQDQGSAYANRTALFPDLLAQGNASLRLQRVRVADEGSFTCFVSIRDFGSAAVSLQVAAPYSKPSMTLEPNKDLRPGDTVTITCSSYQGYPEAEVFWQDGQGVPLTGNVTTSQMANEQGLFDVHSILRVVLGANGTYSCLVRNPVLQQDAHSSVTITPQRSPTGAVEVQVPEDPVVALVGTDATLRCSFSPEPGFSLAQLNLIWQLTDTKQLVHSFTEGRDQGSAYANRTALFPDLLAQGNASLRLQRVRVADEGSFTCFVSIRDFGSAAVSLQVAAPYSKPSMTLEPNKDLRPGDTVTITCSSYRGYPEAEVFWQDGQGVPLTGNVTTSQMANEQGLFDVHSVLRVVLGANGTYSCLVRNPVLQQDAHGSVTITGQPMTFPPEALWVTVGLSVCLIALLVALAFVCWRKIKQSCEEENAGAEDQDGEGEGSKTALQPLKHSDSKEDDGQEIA

B1: Example 296L2: anti-B7H3 AK1B (TPP-5706) coupled with Intermediate F296 (antibody, human IgG1, kappa, V domains shown)
VH: QVQLQQPGAELVKPGASVKMSCKASGYTFTIYNVHWIKQTPGQGLEWMGTIFPGNGDTSYNQKFKDKATLTTDKSSKTAYMQLNSLTSEDSAVYYCARWDDGNVGFAHWGQGTLVTVSA
VL: DIQMTQSPASLSASVGETVTITCRASENINNYLTWFQQKQGKSPQLLVYHAKTLAEGVPSRFSGSGSGTQFSLKINSLQPEDFGSYYCQHHYGTPPTFGGGTKLEIKR
modifications: KSP inhibitor-linker (Intermediate F296) on cysteine residues of the partially reduced antibody, sites not given; drug/mAb ratio 3.2
B2: Example 281L2: anti-B7H3 AK1B (TPP-5706) coupled with Intermediate F281 (antibody, human IgG1, kappa, V domains shown)
VH: B1 VH
VL: B1 VL
modifications: KSP inhibitor-linker (Intermediate F281) on cysteine residues of the partially reduced antibody, sites not given; drug/mAb ratio 2.4
B3: Example 208L2: anti-B7H3 AK1B (TPP-5706) coupled with Intermediate F104 (stirred at pH 8 overnight) (antibody, human IgG1, kappa, V domains shown)
VH: B1 VH
VL: B1 VL
modifications: KSP inhibitor-linker (Intermediate F104) on cysteine residues of the partially reduced antibody, sites not given; drug/mAb ratio 2.9

test system: NCI-H292: human mucoepidermoid lung carcinoma cells; experiment: MTT assay, cytotoxicity of metabolites, NCI-H292; type: cell-based; conditions: NCI-H292, 96 h, 96 h incubation
Method: NCI-H292: human mucoepidermoid lung carcinoma cells, ATCC-CRL-1848, standard medium: RPMI 1640 (Biochrom; #FG1215, stab. glutamine)+10% FCS (Biochrom; #S0415).
(§1) The cells were cultivated according to the standard method using the growth media listed under C-1. The test is carried out by detaching the cells with a solution of Accutase in PBS (Biochrom AG #L2143), pelleting, resuspending in culture medium, counting and sowing into a 96-well culture plate with white bottom (Costar #3610) (NCI H292: 2500 cells/well in a total volume of 100 μl). The cells were then incubated in an incubator at 37° C. and 5% carbon dioxide. After 48 h, the medium was replaced. The metabolites in 10 μl of culture medium in concentrations from 10^−5M to 10^−13M were then pipetted to the cells (in triplicate), and the assay was then incubated in an incubator at 37° C. and 5% carbon dioxide. […] To this end, the MTT reagent was incubated with the cells for 4 h, followed by lysis of the cells overnight by addition of the detergent. The dye formed was detected at 570 nm (Infinite M1000 pro, Tecan). The measured data were used to calculate the IC50 of the growth inhibition using the DRC (dose response curve). The proliferation of cells which were not treated with test substance but were otherwise identically treated was defined as the 100% figure.

Point of comparison: CC(C)(C)[C@H](c1cc(-c2cc(F)ccc2F)cn1Cc1ccccc1)N(CC[C@H](N)C(=O)NCCNC(=O)CNC(=O)C(CC(=O)O)SC[C@H](N)C(=O)O)C(=O)CO (single isomer, unassigned) [Example M15], IC50 133 nM. Against it:
- CC(C)(C)[C@H](c1cc(-c2cc(F)ccc2F)cn1Cc1ccccc1)N(CC[C@H](N)C(=O)NCCNC(=O)CNC(=O)C(CC(=O)O)SC[C@H](N)C(=O)O)C(=O)CO (stereo partly drawn) [Example M27, 4-[(2-{[2-({(2S)-2-Amino-4-[{(1R)-1-[1-benzyl-4-(2,5-difluorophenyl)-1H-pyrrol-2-yl]-2,2-dimethylpropyl}(glycoloyl)amino]butanoyl}amino)ethyl]amino}-2-oxoethyl)amino]-3-{[(2R)-2-amino-2-carboxyethyl]sulphanyl}-4-oxobutanoic acid-trifluoroacetic acid (1:1)] — 2.1-fold higher, 276 nM

test system: KPL4; experiment: MTT assay, cytotoxicity of metabolites, KPL4; type: cell-based; conditions: KPL4, 96 h, 96 h incubation
Method: as §1

Point of comparison: CC(C)(C)[C@H](c1cc(-c2cc(F)ccc2F)cn1Cc1ccccc1)N(CC[C@H](N)C(=O)NCCNC(=O)CSC[C@H](N)C(=O)O)C(=O)CO [Example M7, S-(2-{[2-({(2S)-2-Amino-4-[{(1R)-1-[1-benzyl-4-(2,5-difluorophenyl)-1H-pyrrol-2-yl]-2,2-dimethylpropyl}(glycoloyl)amino]butanoyl}amino)ethyl]amino}-2-oxoethyl)-L-cysteine/trifluoroacetic acid (1:1)], IC50 92.5 nM. Against it:
- CC(C)(C)[C@H](c1cc(-c2cc(F)ccc2F)cn1Cc1ccccc1)N(CC[C@H](N)C(=O)NCCNC(=O)CNC(=O)CC(SC[C@H](N)C(=O)O)C(=O)O)C(=O)CO (single isomer, unassigned) [Example M14] — 2-fold higher, 182 nM
- CC(C)(C)[C@H](c1cc(-c2cc(F)ccc2F)cn1Cc1ccccc1)N(CC[C@H](N)C(=O)NCCNC(=O)CNC(=O)C(CC(=O)O)SC[C@H](N)C(=O)O)C(=O)CO (single isomer, unassigned) [Example M15] — 1.8-fold higher, 169 nM
- CC(C)(C)[C@H](c1cc(-c2cc(F)ccc2F)cn1Cc1ccccc1)N(CC[C@H](N)C(=O)NCCOCCN1C(=O)CC(SC[C@H](N)C(=O)O)C1=O)C(=O)CO (stereo partly drawn) [Example M4, S-(1-{2-[2-({(2S)-2-Amino-4-[{(1R)-1-[1-benzyl-4-(2,5-difluorophenyl)-1H-pyrrol-2-yl]-2,2-dimethylpropyl}(glycoloyl)amino]butanoyl}amino)ethoxy]ethyl}-2,5-dioxopyrrolidin-3-yl)-L-cysteine/trifluoroacetic acid (1:1)] — 1.9-fold higher, 176 nM
- CC(C)(C)[C@H](c1cc(-c2cc(F)ccc2F)cn1Cc1ccccc1)N(CC[C@H](N)C(=O)NCCNC(=O)CNC(=O)CC(SC[C@H](N)C(=O)O)C(=O)O)C(=O)CO (stereo partly drawn) [Example M13, 4-[(2-{[2-({(2S)-2-Amino-4-[{(1R)-1-[1-benzyl-4-(2,5-difluorophenyl)-1H-pyrrol-2-yl]-2,2-dimethylpropyl}(glycoloyl)amino]butanoyl}amino)ethyl]amino}-2-oxoethyl)amino]-2-{[(2R)-2-amino-2-carboxyethyl]sulphanyl}-4-oxobutanoic acid/trifluoroacetic acid (1:1)] — 1.8-fold higher, 169 nM

biological target: T1, B7H3 on B7H3-positive human tumour …; experiment: cell-based or functional assay; conditions: not given

Point of comparison: B1, “IC50 [M] CTG, A498 cells (B7H3-positive)” value 6.22e-10 M. Against it:
- B2 — 22-fold higher, 1.39e-08 M

Point of comparison: B2, “IC50 [M] CTG, Caki-2 cells (B7H3-positive)” value 5.26e-09 M. Against it:
- B1 — higher, > 3e-07 M
- B3 — within 1.5-fold, 5.99e-09 M

Point of comparison: B1, “IC50 [M] CTG, MCF-7 cells (B7H3-positive)” value 1.63e-10 M. Against it:
- B2 — 210-fold higher, 3.42e-08 M
- B3 — within 1.5-fold, 2.42e-10 M
